± gives the standard error. For some assays here: This sample holds only a part of the variants without activity.
B1: glmS ribozyme (parent)
chain: AUAAAAGCGCCAGAACUACAGAAAUGUAGUUGACGAGGAGGAGGUUUAUCGAAUUUUCGGCGGAUGCCUCCAAA

Columns and labels:
Conditions in all cases: with glucosamine-6-phosphate
glucosamine-6-phosphate [1] = variants of: B1; assay: kcat; higher = faster cleavage; RNA array
Procedure, shortened: (§1)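 kobs was derived by fitting per-tile medians to one- or two-exponential decays after normalising signals to baseline and to non-cleaving reference variants. Those signals came from barcoded ribozyme variants transcribed in situ by E. coli RNA polymerase on sequenced MiSeq chips, followed through a hybridised Cy3 probe at 37 °C and imaged over ~14 h. Glucosamine-6-phosphate (40 μM to 10 mM) in HEPES/KCl/Mg(OAc)2 buffer was flowed in. Weighted Michaelis–Menten fits across concentrations then gave kcat and KM.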

glucosamine-6-phosphate [2] = variants of: B1; assay: KM; higher = weaker cofactor use; RNA array
Procedure, shortened: as §1

glucosamine-6-phosphate [3] = variants of: B1; assay: self-cleavage kobs at 40 uM GlcN6P; higher = faster cleavage; RNA array
Procedure, shortened: as §1

glucosamine-6-phosphate [4] = variants of: B1; assay: self-cleavage kobs at 160 uM GlcN6P; higher = faster cleavage; RNA array
Procedure, shortened: as §1

glucosamine-6-phosphate [5] = variants of: B1; assay: self-cleavage kobs at 640 uM GlcN6P; higher = faster cleavage; RNA array
Procedure, shortened: as §1

glucosamine-6-phosphate [6] = variants of: B1; assay: self-cleavage kobs at 2500 uM GlcN6P; higher = faster cleavage; RNA array
Procedure, shortened: as §1

glucosamine-6-phosphate [7] = variants of: B1; assay: self-cleavage kobs at 10000 uM GlcN6P; higher = faster cleavage; RNA array
Procedure, shortened: as §1

Variant	kcat (glucosamine-6-phosphate [1])	KM (glucosamine-6-phosphate [2])	self-cleavage kobs at 40 uM GlcN6P (glucosamine-6-phosphate [3])	self-cleavage kobs at 160 uM GlcN6P (glucosamine-6-phosphate [4])	self-cleavage kobs at 640 uM GlcN6P (glucosamine-6-phosphate [5])	self-cleavage kobs at 2500 uM GlcN6P (glucosamine-6-phosphate [6])	self-cleavage kobs at 10000 uM GlcN6P (glucosamine-6-phosphate [7])
AUAAAAGCGCCAGAACUACAGAAAUGUAGUGGACGAGUAGGAGGUUUAUCGAAUUUUCGGCGGAUGCCUCCAAA [U31G G38U]	< 1e-05 s⁻¹	–	–	–	–	–	–
AUAAAAGCGACAGUACUACAGAAAUGUAGUUGACGAGGAGGAGGUUUAUCGAAUUUUCUGCGGAUGCCUCGAAA [C10A A14U G59U C71G]	1.42e-05 ± 3.8e-06 s⁻¹	–	–	–	–	–	–
AUAAAAGCGCCAGAACUACAGAAAUGUAGUUGACGAGGAGGAGGGUUAUCGAAUUUUCGGCGGAAGCCUCCAAA [U45G U65A]	0.0042 ± 0.00043 s⁻¹	1990 ± 290 µM	8.89e-05 ± 2.1e-05 s⁻¹	0.000296 ± 5.3e-05 s⁻¹	0.001 ± 0.00012 s⁻¹	0.00264 ± 0.0004 s⁻¹	0.00326 ± 0.00059 s⁻¹
AUAAAAGCGCCAGAACUACAGAAAUGUAGUGGACGAGGAGGAGGUUUAUCGAAUUUUAGGCGGAUGCCUCCAAA [U31G C58A]	0.000195 ± 2.1e-05 s⁻¹	2240 ± 600 µM	–	–	5.23e-05 ± 1.2e-05 s⁻¹	9.47e-05 ± 1.4e-05 s⁻¹	0.000163 ± 1.7e-05 s⁻¹
AUAAAAGCGCCACAACUACAGAAAUGUAGUUGACGAGGAGGAGGUUUAUCGAAUUUUCGGCGGAUGCCUUCAAA [G13C C70U]	0.000154 ± 4.9e-06 s⁻¹	1400 ± 140 µM	–	–	4.57e-05 ± 8.9e-06 s⁻¹	0.000103 ± 1.2e-05 s⁻¹	0.000134 ± 1e-05 s⁻¹
AUAAAAGCGCCAGAAGUACAGAAAUGUAGUUGACGAGGAGGAGGUUUAUCGAAUUUUCGGCGGGUGCCUCCAAA [C16G A64G]	0.00475 ± 0.0023 s⁻¹	–	0.000127 ± 1.8e-05 s⁻¹	0.000468 ± 0.00021 s⁻¹	0.00103 ± 0.00014 s⁻¹	0.00156 ± 0.00036 s⁻¹	0.00584 ± 0.00071 s⁻¹
AUAAAAGCGCCAGAACUACAGAAAUGUAUUUGACGAGGAGGAGGUUUAUCGAAUUUUCGGCGGAUUCCUCCAAA [G29U G66U]	0.000182 ± 1.7e-05 s⁻¹	1300 ± 360 µM	–	–	5.65e-05 ± 1.1e-05 s⁻¹	0.000151 ± 2.6e-05 s⁻¹	0.000156 ± 1.6e-05 s⁻¹
AUAAAAGCGCCAGAUCUACAGAAAUGUAGUUGACGAGGAGGAGGUUUAUCGAAUAUUCGGCGGAUGCCUCCAAA [A15U U55A]	0.00715 ± 0.0012 s⁻¹	2060 ± 490 µM	0.000164 ± 1.8e-05 s⁻¹	0.000472 ± 5.3e-05 s⁻¹	0.00147 ± 0.00021 s⁻¹	0.00588 ± 0.0011 s⁻¹	0.00586 ± 0.00053 s⁻¹
AUAAAUGCGCCAGAAUUACAGAAAUGUAGUUGACGAGGAGGAGGUUUAUCGAAUUUUCGGCGGAUGCCUCCAAA [A6U C16U]	0.000238 ± 2.8e-05 s⁻¹	1970 ± 520 µM	–	2.54e-05 ± 9.5e-06 s⁻¹	6.36e-05 ± 7.9e-06 s⁻¹	0.000118 ± 1.2e-05 s⁻¹	0.00021 ± 1.7e-05 s⁻¹
AUAAAAGCGCCAGAACUACAGAAAUGUAGUUGACGAGGAGGAGGUUUAUCGGAUUUUCGGCGGAUUCCUCCAAA [A52G G66U]	0.00018 ± 2.4e-05 s⁻¹	4030 ± 1300 µM	–	–	2.89e-05 ± 1.1e-05 s⁻¹	6.2e-05 ± 1.6e-05 s⁻¹	0.00013 ± 1.5e-05 s⁻¹
AUAAAAGCGCCAGUACUACAGAAAUGUAGUUGACGAGGAGGAGGUAUAUCGAAUUUUCGGCGGAUGCCUCCAAA [A14U U46A]	0.000437 ± 0.0001 s⁻¹	2000 ± 930 µM	–	2.43e-05 ± 9.4e-06 s⁻¹	9.67e-05 ± 1.3e-05 s⁻¹	0.000343 ± 3.4e-05 s⁻¹	0.000323 ± 3.5e-05 s⁻¹
AUAAAAGCGCCAGAACUACAGAAAUGUAGUUGACGAGGAGGAGGGUUAUCGAAUUUUCGGCGGAUGCCUUCAAA [U45G C70U]	0.00681 ± 0.0021 s⁻¹	562 ± 260 µM	0.000542 ± 5.6e-05 s⁻¹	0.00139 ± 0.00018 s⁻¹	0.00288 ± 0.0004 s⁻¹	0.00473 ± 0.00096 s⁻¹	0.0102 ± 0.0013 s⁻¹
AUAAAUGCGCCAGAACUACAGAAAUGUAGUUGACGAGGAGGAGGUUUAUCGAAUUUUCGGCGGAUGCCCCCAAA [A6U U69C]	8.65e-05 ± 8.1e-06 s⁻¹	–	–	–	6.1e-05 ± 2.4e-05 s⁻¹	8.15e-05 ± 2.4e-05 s⁻¹	7.96e-05 ± 1.8e-05 s⁻¹
AUAAAAGCGCUAGAACUACAGAAAUGUAGUUGACGAGGAGGAGGUUUAUCGAAUUUUAGGCGGAUGCCUCCAAA [C11U C58A]	5.6e-05 ± 2e-06 s⁻¹	753 ± 170 µM	–	–	–	4.48e-05 ± 1.1e-05 s⁻¹	5.15e-05 ± 8.2e-06 s⁻¹
AUAAAAGCGCCAGAACUACAGAAAUGUAGUGGACGAGGAGCAGGUUUAUCGAAUUUUCGGCGGAUGCCUCCAAA [U31G G41C]	0.000172 ± 3.9e-05 s⁻¹	–	–	–	–	0.000167 ± 3.6e-05 s⁻¹	0.000139 ± 2.2e-05 s⁻¹
AUAAAAGCGUCAGAACUACAGAAAUGUAGUUGACGAGGAGGAGGUUUAUCGAAUUUUCGGCGGAUGCCUGCAAA [C10U C70G]	2.35e-05 ± 4.9e-06 s⁻¹	–	–	–	–	2.76e-05 ± 1.3e-05 s⁻¹	–

From the supplement of paper PMC7125110
